Test [1] deals with T1, human VEGF165 (human, UniProt P15692-4 27-191).
T1 construct: all are put under this molecule; also called VEGF A; VEGFA
The test is described as follows: ELISA, relative binding activity; final formula 40 mg/mL, T0. (An ELISA detects its analyte on a solid surface through an enzyme-linked reagent.)

Test [2] addresses T2, human Ang2 (human, UniProt O15123 19-496, limits assumed).
T2 construct: Bought proteins; also called hAng2-biotin; Ang2-Bio (Sino)
T2 sequence (looked up): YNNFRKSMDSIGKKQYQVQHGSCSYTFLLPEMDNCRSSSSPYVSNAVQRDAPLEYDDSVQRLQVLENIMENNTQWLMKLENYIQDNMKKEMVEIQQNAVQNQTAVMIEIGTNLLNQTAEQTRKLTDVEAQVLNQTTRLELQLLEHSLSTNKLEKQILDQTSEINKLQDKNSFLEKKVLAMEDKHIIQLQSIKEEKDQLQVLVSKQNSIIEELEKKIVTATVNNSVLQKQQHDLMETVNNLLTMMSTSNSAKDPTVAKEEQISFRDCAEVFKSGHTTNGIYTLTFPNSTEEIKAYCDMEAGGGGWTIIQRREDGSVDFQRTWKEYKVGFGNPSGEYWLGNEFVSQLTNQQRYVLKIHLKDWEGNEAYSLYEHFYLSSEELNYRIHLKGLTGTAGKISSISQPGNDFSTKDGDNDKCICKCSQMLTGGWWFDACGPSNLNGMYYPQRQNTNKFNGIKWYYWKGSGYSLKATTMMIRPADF
The test is described as above.

Test [3] has as its target T1, human VEGF165. The test is described as follows: ELISA, relative binding activity; final formula 40 mg/mL, 25 C, 1M.
For test [4], the target named is T2, human Ang2. The description is as above.
The target in test [5] is T1, human VEGF165. The test is described as follows: ELISA, relative binding activity; final formula 40 mg/mL, 2-8 C, 6M.
The target in test [6] is T2, human Ang2. The description is as above.
Test [7] has as its target T1, human VEGF165. The test can be described thus: ELISA, relative binding activity; final formula 40 mg/mL, 2-8 C, 12M.
Test [8] concerns the target T2, human Ang2. The test is described as above.
Test [9] has as its target T1, human VEGF165. The test is described as follows: ELISA, relative binding activity; IEX04-012 about 40 mg/mL in F2, 40 C, 0 weeks.
The target of test [10] is T2, human Ang2. Described as above.
Test [11] concerns the target T1, human VEGF165. The test is described as follows: ELISA, relative binding activity; IEX04-012 about 40 mg/mL in F2, 40 C, 2 weeks.
Test [12] concerns the target T2, human Ang2. The description is as above.
Test [13] deals with T1, human VEGF165. The test can be described thus: ELISA, relative binding activity; IEX04-012 about 40 mg/mL in F5, 40 C, 0 weeks.
Test [14] has as its target T2, human Ang2. Described as above.
The target in test [15] is T1, human VEGF165. The test is described as follows: ELISA, relative binding activity; IEX04-012 about 40 mg/mL in F6, 40 C, 0 weeks.
Test [16] deals with T2, human Ang2. The description is as above.
In test [17] the target is T1, human VEGF165. The test can be described thus: ELISA, relative binding activity; IEX04-012 about 40 mg/mL in F6, 40 C, 2 weeks.
Test [18] has as its target T2, human Ang2. Described as above.
Test [19] deals with T1, human VEGF165. The test is described as follows: ELISA, relative binding activity; IEX04-012 about 40 mg/mL in F7, 40 C, 2 weeks.
The target of test [20] is T2, human Ang2. The description is as above.
For test [21], the target named is T1, human VEGF165. The test can be described thus: ELISA, relative binding activity; IEX04-012 about 40 mg/mL in F9, 40 C, 2 weeks.
Test [22] deals with T2, human Ang2. The test is described as above.
Test [23] concerns the target T1, human VEGF165. The test can be described thus: ELISA, relative binding activity; IEX04-012 about 40 mg/mL in F10, 40 C, 0 weeks.
In test [24] the target is T2, human Ang2. The description is as above.

This is an account of results in patent publication EP4628097A1 (Innovent Biologics (Suzhou) Co., Ltd., dated 2025).

T1 sequence (P15692 other isoform, or with tags, fused parts or gaps limits assumed): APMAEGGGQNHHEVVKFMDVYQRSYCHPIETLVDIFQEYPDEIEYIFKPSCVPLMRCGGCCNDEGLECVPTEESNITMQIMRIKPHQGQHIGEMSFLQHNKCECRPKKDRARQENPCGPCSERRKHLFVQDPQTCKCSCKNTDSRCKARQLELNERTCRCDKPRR

B1: IEX04-012 (bispecific antibody)
chain: DIQLTQSPSSLSASVGDRVTITCSASQDISNYLNWYQQKPGKAPKVLIYFTSSLHSGVPSRFSGSGSGTDFTLTISSLQPEDFATYYCQQYSTVPWTFGCGTKVEIKGGGGSGGGGSGGGGSGGGGSEVQLVESGGGLVQPGGSLRLSCAASGYDFTHYGMNWVRQAPGKCLEWVGWINTYTGEPTYAADFKRRFTFSLDTSKSTAYLQMNSLRAEDTAVYYCAKYPYYYGTSHWYFDVWGQGTLVTVSSGGGGSGGGGSGGGGSEVQLLESGGGLVQPGGSLRLSCAASGFALDYYAIGWFRQAPGKGLEGVSCISSGEGSTYYADSVKGRFTISRDNSKNTVYLQMNSLRAEDTAVYYCATDSRGDDVACEGLRRNEYDYWGQGTLVTVSS
In the case of B1, the Relative binding Activity to VEGF A (ELISA, %) was found to be 103% in the test with human VEGF165 [1], 98% with human VEGF165 [3], 99% with human VEGF165 [5] and 100% with human VEGF165 [7]. The Relative binding Activity to Ang2 (ELISA, %) with human Ang2 [2] was determined as 95%; with human Ang2 [4], 93%; in the test with human Ang2 [6], 100%; with human Ang2 [8], 96%; with human Ang2 [10], 100%; in the test with human Ang2 [12], 102%. Further, the Relative binding Activity to Ang2 (ELISA, %) was 100% with human Ang2 [14]; 100% with human Ang2 [16]; 89% with human Ang2 [18]; 87% with human Ang2 [20]; 90% in the test with human Ang2 [22]; 100% with human Ang2 [24]. Also, the Relative binding Activity to VEGF (ELISA, %) in the test with human VEGF165 [9] worked out at 100%; in the test with human VEGF165 [11], 99%; in the test with human VEGF165 [13], 100%; with human VEGF165 [15], 100%; in the test with human VEGF165 [17], 99%; with human VEGF165 [19] it was 100%. Further, the Relative binding Activity to VEGF (ELISA, %) was 99% in the test with human VEGF165 [21] and 100% with human VEGF165 [23].
